Experimental data as given in patent publication US8450054B2, “Modified Luciola cruciata luciferase gene and protein” (Marker Gene Technologies, Inc., priority 2008, dated 2013).

Columns and labels:
NIH 3T3 cells = assay: Luciferase expression levels in transfected mammalian cells (luminescence of lysates); assay type: cell-based, murine; settings: mammalian cell systems
Experimental: NIH 3T3 cells (murine […] fibroblasts) were grown to 80% confluence in 100 mm tissue culture plates. Cells were transfected with either pDC57 or pDC99 using Lipofectamine and PLUS reagents (Invitrogen).
(§1) Transfected NIH 3T3 cells prepared in Example 4 were lysed using a lysis buffer comprised of 25 mM Tris-phosphate (pH 7.8), containing 10% glycerol, 1% Triton X-100, 1 mg/ml BSA, 2 mM EGTA and 2 mM DTT. Cells were washed with 1× Phosphate Buffered Saline, and lysis buffer (1 mL) was added to surface of plate. Plate was incubated for 30 mins, and lysate was collected. Additionally, NIH 3T3 cells were transfected with pSV40-GL3, a construct containing wild type luciferase from Photinus pyralis, as per the method in Example 4 and lysed using the above method. As a negative control, untransfected NIH 3T3 cells were also lysed by the above method.
(§2) Cell lysates were diluted using lysis buffer, and added in triplicate to wells of a solid white 96-well plate (Costar). Added to cell lysates was a reagent containing 1 mM D-luciferin and 2 mM ATP in a buffer comprised of 25 mM Glycylglycine, 15 mM MgSO4, 4 mM EDTA, 15 mM Potassium phosphate pH 7.8, 1 mM DTT, and 1 mM Coenzyme A.
(§3) Luminescence was recorded using a Perkin-Elmer HTS7000 Plus Bio Assay Reader (200 ms integration time).

[1] = Thermal stability of modified Luciola cruciata luciferase protein versus wild type protein (residual luminescence of cell lysates after incubation); settings: for stability of the protein relative to wild type: 37° C.
Experimental: as §1, §2, §3
Cell lysates from NIH 3T3 cells transfected with pDC99 and pSV40-GL3 (transfected according to method in Example 4), as well as untransfected cells were prepared as described in Example 5a. Luminescence of each sample was recorded as described in Example 5a to obtain a baseline value of enzyme activity. Portions of each sample were then incubated in water baths at 37° C., 42° C., and 55° C. A portion of each sample was also incubated at ambient room temperature (25° C.). At 1 hour and 2 hour intervals, aliquots of each temperature-incubation were removed and assayed for activity using the method described in Example 5a.

B1: modified luciferase: Luciola cruciata luciferase with Ser to Tyr change at position 286, amino acid sequence SEQ ID NO:4, encoded by codon optimized gene SEQ ID NO:3 (protein, listed as Luciola cruciata)
chain: MENMENDENIVVGPKPFYPIEEGSAGTQLRKYMERYAKLGAIAFTNAVTGVDYSYAEYLEKSCCLGKALQNYGLVVDGRIALCSENCEEFFIPVIAGLFIGVGVAPTNEIYTLRELVHSLGISKPTIVFSSKKGLDKVITVQKTVTTIKTIVILDSKVDYRGYQCLDTFIKRNTPPGFQASSFKTVEVDRKEQVALIMNSSGSTGLPKGVQLTHENTVTRFSHARDPIYGNQVSPGTAVLTVVPFHHGFGMFTTLGYLICGFRVVMLTKFDEETFLKTLQDYKCTYVILVPTLFAILNKSELLNKYDLSNLVEIASGGAPLSKEVGEAVARRFNLPGVRQGYGLTETTSAIIITPEGDDKPGASGKVVPLFKAKVIDLDTKKSLGPNRRGEVCVKGPMLMKGYVNNPEATKELIDEEGWLHTGDIGYYDEEKHFFIVDRLKSLIKYKGYQVPPAELESVLLQHPSIFDAGVAGVPDPVAGELPGAVVVLESGKNMTEKEVMDYVASQVSNAKRLRGGVRFVDEVPKGLTGKIDGRAIREILKKPVAKM
- expression level compared to native luciferase (NIH 3T3 cells): higher expression levels
- stability of the protein relative to wild type ([1]; after 1 hour): > 100 fold
- stability of the protein relative to wild type ([1]; after 2 hours): > 1000 fold
- thermostability compared with wild-type protein ([1]; room temperature): greater thermostability
